Drawing on patent US20260217847A1 (NANJING REGENECORE BIOTECH, published 2026), this text covers binding result and OD450 for one molecule.

The target in one assay is T1, TfR1 peptide D1-helix1 (human).
T1 construct: Synthetic peptide, captured on a streptavidin-coated plate; also called peptide No. 1
T1 peptide: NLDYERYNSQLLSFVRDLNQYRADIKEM
Nature of the assay: peptide ELISA on streptavidin plate, 2 µg/mL 2H7-hFc. The protocol:
(§1) The peptide-antibody binding was identified using a standard enzyme-linked immunosorbent assay (ELISA). The steps were as follows: [0244] (1) The wells of an ELISA plate were coated with 100 μL of 2 μg/mL SA (streptavidin) protein at 4° C. overnight. […] (2) The wells of the ELISA plate were washed with PBST buffer. After adding 200 μL of 2% BSA, the plate was blocked at 37° C. for 1 h. […] (3) The peptide protein was diluted to 2 μg/mL, and a negative control and a positive control (AVI-tagged TfR1 protein) were included. Each experiment contained duplicate controls. […] (4) The wells of the ELISA plate were washed multiple times with PBST buffer. Then, 100 μL of the diluted peptide protein solution from step (3) was added into wells in duplicate, and along with the negative control wells, incubated at 37° C. for 1 h. [0248] (5) The wells of the ELISA plate were washed multiple times with PBST buffer. […] [0249] (6) The wells of the ELISA plate were washed multiple times with PBST buffer. Then, 100 μL of 2× anti-hFc HRP secondary antibody was added, and the plate was incubated at 37° C. for 1 h. [0250] (7) The wells of the ELISA plate were washed multiple times with PBST buffer. After adding 100 μL of TMB chromogenic solution, the reaction was carried out in the dark at room temperature for 30 min. [0251] (8) 100 μL of stop solution (1 mol/L HCl) was added to terminate the reaction. OD450 was measured using a microplate reader, and the readings were recorded.
(An ELISA detects its analyte on a solid surface through an enzyme-linked reagent.)

The target of assay [1] is T2, TfR1 peptide D1-helix2-helix3 (human).
T2 construct: Synthetic peptide, captured on a streptavidin-coated plate; also called peptide No. 4
T2 peptide: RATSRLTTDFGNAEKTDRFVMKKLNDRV
The assay is described as above. How it is done: as §1

Another assay concerns the target T3, TfR1 peptide D3-helix1 (human).
T3 construct: Synthetic peptide, captured on a streptavidin-coated plate; also called peptide No. 5
T3 peptide: RLYWDDLKRKLSEKLDSTD
The description is as above. The protocol:
as §1

The next assay has as its target T4, TfR1 peptide D3-helix2 (human).
T4 construct: Synthetic peptide, captured on a streptavidin-coated plate; also called peptide No. 6
T4 peptide: FTSTIKLLNENSYV
Described as above. How it is done: as §1

The target in a further assay is T5, TfR1 peptide D3-helix3 (human).
T5 construct: Synthetic peptide, captured on a streptavidin-coated plate; also called peptide No. 7
T5 peptide: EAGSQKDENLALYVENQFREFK
The assay is described as above. How it is done: as §1

For assay [2], the target named is T6, TfR1 peptide D3-helix1-helix2 (human).
T6 construct: Synthetic peptide, captured on a streptavidin-coated plate; also called peptide No. 8
T6 peptide: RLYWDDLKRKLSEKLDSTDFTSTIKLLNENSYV
Described as above. The protocol:
as §1

In assay [3] the target is T7, TfR1 peptide D3-helix2-helix3 (human).
T7 construct: Synthetic peptide, captured on a streptavidin-coated plate; also called peptide No. 9
T7 peptide: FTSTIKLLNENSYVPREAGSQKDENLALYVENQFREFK
Described as above. The protocol: as §1

The target in assay [4] is T8, TfR1 peptide D3-helix3-loop1 (human).
T8 construct: Synthetic peptide, captured on a streptavidin-coated plate; also called peptide No. 10
T8 peptide: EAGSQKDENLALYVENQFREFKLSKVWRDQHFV
The assay is described as above. How it is done: as §1

Assay [5] concerns the target T9, TfR1 peptide D3-loop1 (human).
T9 construct: Synthetic peptide, captured on a streptavidin-coated plate; also called peptide No. 11
T9 peptide: LSKVWRDQHFV
The assay is described as above. The protocol: as §1

In assay [6] the target is T10, TfR1 peptide D2-loop1 (human).
T10 construct: Synthetic peptide, captured on a streptavidin-coated plate; also called peptide No. 12
T10 peptide: GTKKDFEDLY
The description is as above. How it is done: as §1

Assay [7] has as its target T11, TfR1 peptide D2-loop1-K (human).
T11 construct: Synthetic peptide, captured on a streptavidin-coated plate; also called peptide No. 13
T11 peptide: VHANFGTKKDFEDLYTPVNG
The description is as above. How it is done:
as §1

For the next assay, the target named is T12, TfR1 peptide D2-loop3-K (human).
T12 construct: Synthetic peptide, captured on a streptavidin-coated plate; also called peptide No. 14
T12 peptide: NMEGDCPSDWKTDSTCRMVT
The description is as above. How it is done: as §1

A further assay has as its target T13, TfR1 peptide D1-helix5 (human).
T13 construct: Synthetic peptide, captured on a streptavidin-coated plate; also called peptide No. 17
T13 peptide: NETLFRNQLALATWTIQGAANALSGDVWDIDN
Described as above. How it is done: as §1

For a further assay, the target named is T14, TfR1 peptide D2-loop2-K (human).
T14 construct: Synthetic peptide, captured on a streptavidin-coated plate; also called peptide No. 21
T14 peptide: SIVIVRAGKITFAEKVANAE
The assay is described as above. The protocol:
as §1

Assay [8] has as its target T2, TfR1 peptide D1-helix2-helix3. Nature of the assay: peptide ELISA on streptavidin plate, 2 µg/mL 2H7-hFc, anti-hFc HRP. The protocol:
as §1

For assay [9], the target named is T6, TfR1 peptide D3-helix1-helix2. The description is as above. How it is done: as §1
Assay [10] addresses T7, TfR1 peptide D3-helix2-helix3. Described as above. The protocol:
as §1

In assay [11] the target is T9, TfR1 peptide D3-loop1. The description is as above. The protocol: as §1
Assay [12] deals with T10, TfR1 peptide D2-loop1. The description is as above. How it is done:
as §1

Assay [13] deals with T11, TfR1 peptide D2-loop1-K. Described as above. How it is done:
as §1

B1: anti-humanized TfR1 single-domain antibody-Fc fusion antibody 2H7-hFC1 (Fc fusion)
chain (part 1 of 2): ESGGGLVQPGESLRLSCVASGSIWSIYTMGWYRQAPGKQRDFVASITGDSTRTLESVKDRFIISRDNTKNTLYLQMNSLKPEDTAVYYCQAITSLGEYWGQGTQVTVSS
notes: Expressed in 293F cells, Protein A purified; labelled with pHrodo iFL Green in the internalization assays; also called VHH-hFc; not shown: human IgG1 Fc: hinge, CH2 and CH3 regions, from vector RJK-V4-hFC1; limits and junction (multiple cloning site) not stat
Consider B1, for which the binding result is on record as “no binding (tested: P/N 1.2, limit 2)” in the assay with TfR1 peptide D1-helix1; “no binding (tested: P/N 1.4, limit 2)” in assay [1]; “no binding (tested: P/N 1.1, limit 2)” in the assay with TfR1 peptide D3-helix1; “no binding (tested: P/N 1.3, limit 2)” in the assay with TfR1 peptide D3-helix2; “no binding (tested: P/N 1.1, limit 2)” in the assay with TfR1 peptide D3-helix3; “no binding (tested: P/N 1.1, limit 2)” in assay [2]. For the same molecule, the binding result is reported as “no binding (tested: P/N 1.2, limit 2)” in assay [3]; “no binding (tested: P/N 1.7, limit 2)” in assay [4]; “no binding (tested: P/N 1.4, limit 2)” with TfR1 peptide D3-loop1 [5]; “no binding (tested: P/N 1.4, limit 2)” with TfR1 peptide D2-loop1 [6]; “no binding (tested: P/N 1.2, limit 2)” in the assay with TfR1 peptide D2-loop1-K [7]; “no binding (tested: P/N 1.5, limit 2)” in the assay with TfR1 peptide D2-loop3-K. Also, the binding result is reported as “no binding (tested: P/N 1.2, limit 2)” with TfR1 peptide D1-helix5 and “no binding (tested: P/N 1.3, limit 2)” in the assay with TfR1 peptide D2-loop2-K. The OD450 in assay [8] was found to be 0.19; in assay [9], 0.274; in assay [10], 0.247; in the assay with TfR1 peptide D3-loop1 [11], 0.17; with TfR1 peptide D2-loop1 [12], 0.176; in the assay with TfR1 peptide D2-loop1-K [13] it was 0.195.
